Measured values: publication PMC2794717

Biological target: yeast SCF^Cdc4 ubiquitin ligase (yeast) (UniProt P52286)
Chain of UniProt P52286 (P52286 whole entry, chain 1 of 4): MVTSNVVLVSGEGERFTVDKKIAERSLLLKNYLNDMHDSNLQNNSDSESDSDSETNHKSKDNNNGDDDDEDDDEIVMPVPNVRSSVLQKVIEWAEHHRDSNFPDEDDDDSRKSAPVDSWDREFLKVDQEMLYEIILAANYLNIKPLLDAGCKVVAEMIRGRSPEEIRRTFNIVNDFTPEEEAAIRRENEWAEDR
Chain of UniProt P52286 (Q12018 whole entry, chain 2 of 4, further chain): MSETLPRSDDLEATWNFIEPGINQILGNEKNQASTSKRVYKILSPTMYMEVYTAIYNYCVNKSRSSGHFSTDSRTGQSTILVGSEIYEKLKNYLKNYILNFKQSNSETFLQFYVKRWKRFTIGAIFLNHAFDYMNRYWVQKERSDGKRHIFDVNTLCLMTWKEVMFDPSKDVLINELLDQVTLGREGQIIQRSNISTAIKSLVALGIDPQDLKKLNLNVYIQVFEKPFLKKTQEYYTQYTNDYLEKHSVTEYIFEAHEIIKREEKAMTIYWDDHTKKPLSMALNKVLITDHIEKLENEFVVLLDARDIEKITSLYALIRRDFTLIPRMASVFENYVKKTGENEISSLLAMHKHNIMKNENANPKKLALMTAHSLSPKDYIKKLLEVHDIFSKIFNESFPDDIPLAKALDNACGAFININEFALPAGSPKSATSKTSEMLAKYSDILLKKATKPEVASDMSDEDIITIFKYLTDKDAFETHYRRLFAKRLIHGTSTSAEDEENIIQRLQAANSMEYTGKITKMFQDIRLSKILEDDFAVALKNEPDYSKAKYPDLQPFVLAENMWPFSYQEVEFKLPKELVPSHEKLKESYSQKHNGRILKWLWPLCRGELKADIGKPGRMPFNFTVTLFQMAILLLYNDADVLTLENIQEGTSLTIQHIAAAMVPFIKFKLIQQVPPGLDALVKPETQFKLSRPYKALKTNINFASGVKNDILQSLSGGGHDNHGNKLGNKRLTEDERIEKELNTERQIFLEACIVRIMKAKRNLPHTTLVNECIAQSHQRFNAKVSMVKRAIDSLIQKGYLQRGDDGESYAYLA
Chain of UniProt P52286 (P07834 whole entry, chain 3 of 4, further chain): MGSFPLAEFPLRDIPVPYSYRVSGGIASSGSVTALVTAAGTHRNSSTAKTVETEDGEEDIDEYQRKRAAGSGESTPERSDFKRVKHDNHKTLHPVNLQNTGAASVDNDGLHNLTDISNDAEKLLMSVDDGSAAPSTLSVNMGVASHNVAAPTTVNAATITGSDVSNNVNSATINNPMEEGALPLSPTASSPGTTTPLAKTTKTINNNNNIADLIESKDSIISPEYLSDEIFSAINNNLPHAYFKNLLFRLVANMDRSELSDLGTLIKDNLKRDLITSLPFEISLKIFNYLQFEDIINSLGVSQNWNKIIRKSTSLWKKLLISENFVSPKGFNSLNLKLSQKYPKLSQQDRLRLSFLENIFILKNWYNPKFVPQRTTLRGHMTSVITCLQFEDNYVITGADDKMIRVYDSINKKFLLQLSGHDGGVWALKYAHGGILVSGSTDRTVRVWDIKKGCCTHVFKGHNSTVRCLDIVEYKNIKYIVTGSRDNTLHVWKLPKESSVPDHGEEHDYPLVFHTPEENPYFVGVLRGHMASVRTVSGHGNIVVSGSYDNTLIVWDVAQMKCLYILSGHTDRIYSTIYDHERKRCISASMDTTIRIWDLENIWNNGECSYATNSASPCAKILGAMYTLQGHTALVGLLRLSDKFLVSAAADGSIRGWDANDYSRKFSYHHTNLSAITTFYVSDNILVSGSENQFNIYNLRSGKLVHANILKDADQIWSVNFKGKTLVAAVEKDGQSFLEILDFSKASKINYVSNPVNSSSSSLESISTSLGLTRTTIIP
Chain of UniProt P52286 (Q08273 whole entry, chain 4 of 4, further chain): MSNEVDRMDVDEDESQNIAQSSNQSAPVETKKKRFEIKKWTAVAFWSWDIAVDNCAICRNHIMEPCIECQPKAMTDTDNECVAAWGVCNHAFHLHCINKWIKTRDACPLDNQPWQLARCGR

B1: yeast Cdc34-Δ220 (domain or fragment)
chain: MSSRKSTASSLLLRQYRELTDPKKAIPSFHIELEDDSNIFTWNIGVMVLNEDSIYHGGFFKAQMRFPEDFPFSPPQFRFTPAIYHPNVYRDGRLCISILHQSGDPMTDEPDAETWSPVQTVESVLISIVSLLEDPNINSPANVDAAVDYRKNPEQYKQRVKMEVERSKQDIPKGFIMPTSESAYISQSKLDEPESNKDMADNFWYDSDLDDDENGSVILQ
B1 showed a fold increase in Km in Sic1 ubiquitylation reactions, against Cdc34-Δ230 of 3 fold.
